Assay results as given in US20030166021A1.

Molecular target: c-Myc (human) (UniProt P01106)
Assay: cell-based or functional assay

Sequence of c-Myc (human) (P01106 16-454 limits assumed): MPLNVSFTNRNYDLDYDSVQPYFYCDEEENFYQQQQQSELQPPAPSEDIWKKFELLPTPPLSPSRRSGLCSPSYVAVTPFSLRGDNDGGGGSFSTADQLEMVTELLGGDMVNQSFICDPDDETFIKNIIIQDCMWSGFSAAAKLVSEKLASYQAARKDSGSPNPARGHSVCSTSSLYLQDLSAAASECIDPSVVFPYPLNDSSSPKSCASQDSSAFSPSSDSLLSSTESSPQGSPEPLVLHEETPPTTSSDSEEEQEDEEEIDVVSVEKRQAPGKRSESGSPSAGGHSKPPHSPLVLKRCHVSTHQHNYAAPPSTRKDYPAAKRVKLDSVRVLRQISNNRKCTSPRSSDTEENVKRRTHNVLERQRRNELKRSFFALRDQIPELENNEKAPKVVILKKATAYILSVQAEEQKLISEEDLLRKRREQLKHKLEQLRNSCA

Row | Substance | focus formation in the Ras cooperation assay (myc + ras, rat embryo fibroblasts) [fold] | focus formation in the Ras cooperation assay (MYC + RAS, rat embryo fibroblasts) [fold] | fold decrease in focus formation by MYC (MYC + activated RAS, rat embryo fibroblasts) [fold]
1 | ATG99 polypeptide (murine clone #99 ORF with initiator methionine, vector neoCMV-ATG99) (from UniProt O08539 310-565) | 2.4 | – | –
2 | human Bin1 (Box-dependent Myc-Interacting protein-1), full-length 451 amino acid product of cDNA p99f (from UniProt O00499 9-593) | – | 7 | 6
